Measured values reported in patent US20230312741A1 (published 2023).

What was measured:
[1] = target: T1, human CD73 expressed on the cell surface (human, UniProt P21589 27-549); test: cell-based or functional assay
T1 sequence: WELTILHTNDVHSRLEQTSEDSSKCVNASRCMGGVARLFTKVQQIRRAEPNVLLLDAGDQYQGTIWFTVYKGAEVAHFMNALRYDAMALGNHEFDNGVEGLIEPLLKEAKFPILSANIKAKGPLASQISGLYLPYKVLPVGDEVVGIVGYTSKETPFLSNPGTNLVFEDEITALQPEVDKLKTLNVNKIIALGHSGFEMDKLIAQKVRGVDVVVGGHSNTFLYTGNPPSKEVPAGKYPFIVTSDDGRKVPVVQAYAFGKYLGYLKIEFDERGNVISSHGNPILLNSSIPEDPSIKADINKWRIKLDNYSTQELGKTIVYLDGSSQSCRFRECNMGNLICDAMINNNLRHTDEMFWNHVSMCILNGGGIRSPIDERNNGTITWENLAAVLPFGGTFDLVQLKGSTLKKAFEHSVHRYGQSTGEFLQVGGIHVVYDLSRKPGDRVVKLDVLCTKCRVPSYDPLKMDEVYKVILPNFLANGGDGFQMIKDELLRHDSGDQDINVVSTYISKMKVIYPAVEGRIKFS

[2] = target: T1, human CD73 expressed on the cell surface; test: cell-based or functional assay; remark: listed apart in the source
human CD73 antigen = target: T2, human CD73 antigen (human, UniProt P21589 27-547); test: ForteBio BLI; antigen on sensor, 100 nM scFv; monovalent; 1:1 model
T2 construct: also called Biotinylated Human CD73
T2 sequence (looked up): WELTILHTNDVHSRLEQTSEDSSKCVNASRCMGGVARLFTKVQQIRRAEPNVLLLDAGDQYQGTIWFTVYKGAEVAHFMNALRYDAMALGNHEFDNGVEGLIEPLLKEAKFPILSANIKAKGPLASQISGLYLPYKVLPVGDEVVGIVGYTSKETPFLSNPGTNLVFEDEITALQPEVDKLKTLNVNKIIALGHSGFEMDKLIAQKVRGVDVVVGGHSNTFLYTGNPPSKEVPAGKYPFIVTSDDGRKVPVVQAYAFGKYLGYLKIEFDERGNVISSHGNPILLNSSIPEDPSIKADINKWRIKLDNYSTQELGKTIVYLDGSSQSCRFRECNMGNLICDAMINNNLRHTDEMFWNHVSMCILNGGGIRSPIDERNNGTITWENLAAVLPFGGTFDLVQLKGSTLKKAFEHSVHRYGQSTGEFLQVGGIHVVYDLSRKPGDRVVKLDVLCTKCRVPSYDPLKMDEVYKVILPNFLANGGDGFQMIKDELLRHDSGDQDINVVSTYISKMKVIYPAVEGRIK
Procedure: (§1) Human or cynomolgus monkey CD73 antigen protein was loaded on-line to the AHQ sensor (ForteBio) for ForteBio affinity measurement. […] Kinetic analysis was performed by using a 1:1 binding model.

[3] = target: T3, cynomolgus monkey CD73 antigen (cynomolgus monkey, UniProt A0A2K5V5U7 27-547); test: as above
T3 construct: also called Biotinylated cynomolgus monkey CD73
T3 sequence: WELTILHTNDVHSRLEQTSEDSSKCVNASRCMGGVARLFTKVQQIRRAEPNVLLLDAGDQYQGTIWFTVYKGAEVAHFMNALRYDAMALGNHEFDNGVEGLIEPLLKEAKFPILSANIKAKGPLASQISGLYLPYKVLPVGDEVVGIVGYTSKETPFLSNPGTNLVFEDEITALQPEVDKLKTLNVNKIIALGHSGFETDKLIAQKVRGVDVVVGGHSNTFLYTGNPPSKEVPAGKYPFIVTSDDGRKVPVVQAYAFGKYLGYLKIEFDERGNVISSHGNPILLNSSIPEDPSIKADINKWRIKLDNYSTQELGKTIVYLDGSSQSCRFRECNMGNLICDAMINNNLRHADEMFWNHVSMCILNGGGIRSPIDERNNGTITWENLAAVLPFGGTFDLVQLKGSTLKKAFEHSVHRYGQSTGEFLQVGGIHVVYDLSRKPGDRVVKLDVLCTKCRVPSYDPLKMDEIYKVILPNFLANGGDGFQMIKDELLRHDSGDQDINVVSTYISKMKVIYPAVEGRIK
Procedure: as §1

B1: ADI-37543 (antibody, human IgG4 S228P, kappa, F234A L235A, V domains shown)
VH: QVQLQESGPGLVKPSETLSLTCAVSGYSISSGYYWAWIRQPPGKGLEWIGSIFHSGFTFYNPSLKSRVTISVDTSKNQFSLKLSSVTAADTAVYYCARASIYTPPPEYFQHWGQGTLVTVSS
VL: DIQMTQSPSTLSASVGDRVTITCRASQSISSWLAWYQQKPGKAPKLLIYDASSLESGVPSRFSGSGSGTEFTLTISSLQPDDFATYYCQQSRIYSTFGGGTKVEIKR
IC50 for inhibiting the enzymatic activity of CD73 (Calu-6 cells) [1]: 196 ng/mL

B2: ADI-34095 (antibody, human IgG4 S228P, kappa, F234A L235A, V domains shown)
VH: QVQLVESGGGVVQPGRSLRLSCAASGFTFSSYGMHWVRQAPGKGLEWVAVISYEGSNKYYADSVKGRFTISRDNSKNTLYLQMNSLRAEDTAVYYCARGGARYPIAFDIWGQGTMVTVSS
VL: DIQLTQSPSSVSASVGDRVTITCRASQDISSWLAWYQQKPGKAPKLLIYAASSLQSGVPSRFSGSGSGTDFTLTISSLQPEDFATYYCQQANDFPITFGGGTKVEIKR
CD73 enzymatic activity assay IC50 (Calu-6 cells, CellTiter-Glo) [2]: 279 ng/mL

B3: ADI-37503 (antibody, human IgG4 S228P, kappa, F234A L235A, V domains shown)
VH: EVQLLESGGGLVQPGGSLRLSCAASGFTFSNYAMSWVRQAPGKGLEWVSAISGRASSTYYADSVKGRFTISRDNSKNTLYLQMNSLRAEDTAVYYCARGGPYGSGSYWDTFDYWGQGTLVTVSS
VL: EIVMTQSPATLSVSPGERATLSCRASQSVSSNLAWYQQKPGQAPRLLIYGASTRATGIPARFSGSGSGTEFTLTISSLQSEDFAVYYCQQYTNHYTFGGGTKVEIKR
IC50 for inhibiting the enzymatic activity of CD73 (Calu-6 cells) [1]: 62 ng/mL

B4: scfv fragment of ADI-37503 (scFv, V domains shown)
VH: EVQLLESGGGLVQPGGSLRLSCAASGFTFSNYAMSWVRQAPGKGLEWVSAISGRASSTYYADSVKGRFTISRDNSKNTLYLQMNSLRAEDTAVYYCARGGPYGSGSYWDTFDYWGQGTLVTVSS
VL: EIVMTQSPATLSVSPGERATLSCRASQSVSSNLAWYQQKPGQAPRLLIYGASTRATGIPARFSGSGSGTEFTLTISSLQSEDFAVYYCQQYTNHYTFGGGTKVEIK
Kd (human CD73 antigen): 7.95 nM | Kd [3]: 6.61 nM

B5: scfv fragment of ADI-37504 (scFv, V domains shown)
VH: EVQLLESGGGLVQPGGSLRLSCAASGFTFHNYAMSWVRQAPGKGLEWVSAISGTGRATYYADSVKGRFTISRDNSKNTLYLQMNSLRAEDTAVYYCARGGPYGSGSYWDTFDYWGQGTLVTVSS
VL: EIVMTQSPATLSVSPGERATLSCRASQSVSSNLAWYQQKPGQAPRLLIYGASTRATGIPARFSGSGSGTEFTLTISSLQSEDFAVYYCQQYTNHYTFGGGTKVEIK
Kd (human CD73 antigen): 15.4 nM | Kd [3]: 20.2 nM

B6: scfv fragment of ADI-37505 (scFv, V domains shown)
VH: QVQLVESGGGLVQPGGSLRLSCAASGFTFSNYAMTWVRQAPGKGLEWVSAISGRGTATYYADSVKGRFTISRDNSKNTLYLQMNSLRAEDTAVYYCARGGPYGSGSYWDTFDYWGQGTLVTVSS
VL: EIVMTQSPATLSVSPGERATLSCRASQSVSSNLAWYQQKPGQAPRLLIYGASTRATGIPARFSGSGSGTEFTLTISSLQSEDFAVYYCQQYTNHYTFGGGTKVEIK
Kd (human CD73 antigen): 5.56 nM | Kd [3]: 5.34 nM

B7: scfv fragment of ADI-37506 (scFv, V domains shown)
VH: EVQLLESGGGLVQPGGSLRLSCAASGFTFSNLAMSWVRQAPGKGLEWVSAISGRATSTYYADSVKGRFTISRDNSKNTLYLQMNSLRAEDTAVYYCARGGPYGSGSYWDTFDYWGQGTLVTVSS
VL: EIVMTQSPATLSVSPGERATLSCRASQSVSSNLAWYQQKPGQAPRLLIYGASTRATGIPARFSGSGSGTEFTLTISSLQSEDFAVYYCQQYTNHYTFGGGTKVEIK
Kd (human CD73 antigen): 5.41 nM | Kd [3]: 4.77 nM

B8: scfv fragment of ADI-37507 (scFv, V domains shown)
VH: EVQLLESGGGLVQPGGSLRLSCAASGFTFLNYAMAWVRQAPGKGLEWVSAISGRATSTYYADSVKGRFTISRDNSKNTLYLQMNSLRAEDTAVYYCARGGPYGSGSYWDTFDYWGQGTLVTVSS
VL: EIVMTQSPATLSVSPGERATLSCRASQSVSSNLAWYQQKPGQAPRLLIYGASTRATGIPARFSGSGSGTEFTLTISSLQSEDFAVYYCQQYTNHYTFGGGTKVEIK
Kd (human CD73 antigen): 9.21 nM | Kd [3]: 23.7 nM

B9: scfv fragment of ADI-37532 (scFv, V domains shown)
VH: QVQLVESGGGVVQPGRSLRLSCAASGFTFSSYSMHWVRQAPGKGLEWVAHIVEGSDKYYADSVKGRFTISRDNSKNTLYLQMNSLRAEDTAVYYCARSRYDWSLFDIWGQGTMVTVSS
VL: EIVLTQSPGTLSLSPGERATLSCGASQSVSSSYLAWYQQKPGQAPRLLIYGASSRATGIPDRFSGSGSGTDFTLTISRLEPEDFAVYYCQQYVLYPFTFGGGTKVEIK
Kd (human CD73 antigen): 0.581 nM | Kd [3]: 0.53 nM

B10: scfv fragment of ADI-37513 (scFv, V domains shown)
VH: EVQLLESGGGVVQPGRSLRLSCAASGFTFNFYGMHWVRQAPGKGLEWVAVINDEGINKYYADSVKGRFTISRDNSKNTLYLQMNSLRAEDTAVYYCARGGARYPIAFDIWGQGTMVTVSS
VL: DIQLTQSPSSVSASVGDRVTITCRASQDISSWLAWYQQKPGKAPKLLIYAASSLQSGVPSRFSGSGSGTDFTLTISSLQPEDFATYYCQQANDFPITFGGGTKVEIK
Kd (human CD73 antigen): 2.84 nM | Kd [3]: 2.26 nM

B11: scfv fragment of ADI-37522 (scFv, V domains shown)
VH: QVQLVESGGGVVQPGRSLRLSCAASGFTFSHYGMHWVRQAPGKGLEWVAVISDEGSNKYYADSVKGRFTISRDNSKNTLYLQMNSLRAEDTAVYYCARGWLRYPIAFDIWGQGTMVTVSS
VL: DIQLTQSPSSVSASVGDRVTITCRASQDISSWLAWYQQKPGKAPKLLIYAASSLQSGVPSRFSGSGSGTDFTLTISSLQPEDFATYYCQQANDFPITFGGGTKVEIK
Kd (human CD73 antigen): 2.43 nM | Kd [3]: 2.93 nM

B12: scfv fragment of ADI-37497 (scFv, V domains shown)
VH: EVQLVESGGGLVQPGGSLRLSCAASGFTFDDYFMHWVRQAPGKGLEWVSGISWSSGPIDYADSVKGRFTISRDNAKNSLYLQMNSLRAEDTAVYYCAKGKYLPTGSVDYWGQGTLVTVSS
VL: EIVLTQSPGTLSLSPGERATLSCRASQSVSSSYLAWYQQKPGQAPRLLIYGASSRATGIPDRFSGSGSGTDFTLTISRLEPEDFAVYYCQQYYDYPPITFGGGTKVEIK
Kd (human CD73 antigen): 10.2 nM | Kd [3]: 8.82 nM

B13: scfv fragment of ADI-37496 (scFv, V domains shown)
VH: EVQLVESGGGLVQPGRSLRLSCAASGFTFDDFYMHWVRQAPGKGLEWVSGISWSSTSIDYADSVKGRFTISRDNAKNSLYLQMNSLRAEDTAVYYCAKGKYLPTGSVDYWGQGTLVTVSS
VL: EIVLTQSPGTLSLSPGERATLSCRASQSVSSSYLAWYQQKPGQAPRLLIYGASSRATGIPDRFSGSGSGTDFTLTISRLEPEDFAVYYCQQYYDYPPITFGGGTKVEIK
Kd (human CD73 antigen): 13.8 nM | Kd [3]: 13.7 nM

B14: scfv fragment of ADI-37542 (scFv, V domains shown)
VH: QVQLQESGPGLVKPSETLSLTCAVSGYSISEGYYWGWIRQPPGKGLEWIGSIYHTGFTYYNPSLKSRVTISVDTSKNQFSLKLSSVTAADTAVYYCARASIYTPPPEYFQHWGQGTLVTVSS
VL: DIQMTQSPSTLSASVGDRVTITCRASQSISSWLAWYQQKPGKAPKLLIYDASSLESGVPSRFSGSGSGTEFTLTISSLQPDDFATYYCQQSRIYSTFGGGTKVEIK
Kd (human CD73 antigen): 6.04 nM | Kd [3]: 5.47 nM

B15: scfv fragment of ADI-37543 (scFv, V domains shown)
VH: QVQLQESGPGLVKPSETLSLTCAVSGYSISSGYYWAWIRQPPGKGLEWIGSIFHSGFTFYNPSLKSRVTISVDTSKNQFSLKLSSVTAADTAVYYCARASIYTPPPEYFQHWGQGTLVTVSS
VL: DIQMTQSPSTLSASVGDRVTITCRASQSISSWLAWYQQKPGKAPKLLIYDASSLESGVPSRFSGSGSGTEFTLTISSLQPDDFATYYCQQSRIYSTFGGGTKVEIK
Kd (human CD73 antigen): 3.85 nM | Kd [3]: 2.99 nM
